Consider 17 variants from IntAct's records for PubMed 34606829.

B1: ALK tyrosine kinase receptor (Homo sapiens), Q9UM73 (parent)
chain: MGAIGLLWLLPLLLSTAAVGSGMGTGQRAGSPAAGPPLQPREPLSYSRLQRKSLAVDFVVPSLFRVYARDLLLPPSSSELKAGRPEARGSLALDCAPLLRLLGPAPGVSWTAGSPAPAEARTLSRVLKGGSVRKLRRAKQLVLELGEEAILEGCVGPPGEAAVGLLQFNLSELFSWWIRQGEGRLRIRLMPEKKASEVGREGRLSAAIRASQPRLLFQIFGTGHSSLESPTNMPSPSPDYFTWNLTWIMKDSFPFLSHRSRYGLECSFDFPCELEYSPPLHDLRNQSWSWRRIPSEEASQMDLLDGPGAERSKEMPRGSFLLLNTSADSKHTILSPWMRSSSEHCTLAVSVHRHLQPSGRYIAQLLPHNEAAREILLMPTPGKHGWTVLQGRIGRPDNPFRVALEYISSGNRSLSAVDFFALKNCSEGTSPGSKMALQSSFTCWNGTVLQLGQACDFHQDCAQGEDESQMCRKLPVGFYCNFEDGFCGWTQGTLSPHTPQWQVRTLKDARFQDHQDHALLLSTTDVPASESATVTSATFPAPIKSSPCELRMSWLIRGVLRGNVSLVLVENKTGKEQGRMVWHVAAYEGLSLWQWMVLPLLDVSDRFWLQMVAWWGQGSRAIVAFDNISISLDCYLTISGEDKILQNTAPKSRNLFERNPNKELKPGENSPRQTPIFDPTVHWLFTTCGASGPHGPTQAQCNNAYQNSNLSVEVGSEGPLKGIQIWKVPATDTYSISGYGAAGGKGGKNTMMRSHGVSVLGIFNLEKDDMLYILVGQQGEDACPSTNQLIQKVCIGENNVIEEEIRVNRSVHEWAGGGGGGGGATYVFKMKDGVPVPLIIAAGGGGRAYGAKTDTFHPERLENNSSVLGLNGNSGAAGGGGGWNDNTSLLWAGKSLQEGATGGHSCPQAMKKWGWETRGGFGGGGGGCSSGGGGGGYIGGNAASNNDPEMDGEDGVSFISPLGILYTPALKVMEGHGEVNIKHYLNCSHCEVDECHMDPESHKVICFCDHGTVLAEDGVSCIVSPTPEPHLPLSLILSVVTSALVAALVLAFSGIMIVYRRKHQELQAMQMELQSPEYKLSKLRTSTIMTDYNPNYCFAGKTSSISDLKEVPRKNITLIRGLGHGAFGEVYEGQVSGMPNDPSPLQVAVKTLPEVCSEQDELDFLMEALIISKFNHQNIVRCIGVSLQSLPRFILLELMAGGDLKSFLRETRPRPSQPSSLAMLDLLHVARDIACGCQYLEENHFIHRDIAARNCLLTCPGPGRVAKIGDFGMARDIYRASYYRKGGCAMLPVKWMPPEAFMEGIFTSKTDTWSFGVLLWEIFSLGYMPYPSKSNQEVLEFVTSGGRMDPPKNCPGPVYRIMTQCWQHQPEDRPNFAIILERIEYCTQDPDVINTALPIEYGPLVEEEEKVPVRPKDPEGVPPLLVSQQAKREEERSPAAPPPLPTTSSGKAAKKPTAAEISVRVPRGPAVEGGHVNMAFSQSNPPSELHKVHGSRNKPTSLWNPTYGSWFTEKPTKKNNPIAKKEPHDRGNLGLEGSCTVPPNVATGRLPGASLLLEPSSLTANMKEVPLFRLRHFPCGNVNYGYQQQGLPLEAATAPGAGHYEDTILKSKNSMNQPGP
B2: ALK tyrosine kinase receptor (Homo sapiens), Q9UM73 (parent)
chain: B1 chain
partner: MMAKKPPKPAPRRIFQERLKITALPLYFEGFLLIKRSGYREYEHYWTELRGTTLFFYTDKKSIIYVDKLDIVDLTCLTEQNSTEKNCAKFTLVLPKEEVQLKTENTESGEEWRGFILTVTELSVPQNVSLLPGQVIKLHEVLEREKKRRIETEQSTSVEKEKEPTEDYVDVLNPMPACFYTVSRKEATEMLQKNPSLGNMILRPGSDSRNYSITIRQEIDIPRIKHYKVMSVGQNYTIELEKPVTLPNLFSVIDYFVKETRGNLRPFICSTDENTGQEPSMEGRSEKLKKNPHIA
B3: ALK tyrosine kinase receptor (Homo sapiens), Q9UM73 (parent)
chain: B1 chain
partner: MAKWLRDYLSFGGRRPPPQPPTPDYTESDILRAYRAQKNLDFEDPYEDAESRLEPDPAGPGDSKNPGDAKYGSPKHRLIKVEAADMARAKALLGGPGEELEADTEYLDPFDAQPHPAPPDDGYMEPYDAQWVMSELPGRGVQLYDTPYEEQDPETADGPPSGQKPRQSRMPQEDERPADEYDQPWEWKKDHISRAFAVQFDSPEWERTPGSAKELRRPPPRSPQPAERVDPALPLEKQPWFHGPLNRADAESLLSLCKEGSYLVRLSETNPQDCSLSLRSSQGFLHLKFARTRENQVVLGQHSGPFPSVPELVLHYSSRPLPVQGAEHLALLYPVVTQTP
B4: ALK tyrosine kinase receptor (Homo sapiens), Q9UM73 (parent)
chain: B1 chain
partner: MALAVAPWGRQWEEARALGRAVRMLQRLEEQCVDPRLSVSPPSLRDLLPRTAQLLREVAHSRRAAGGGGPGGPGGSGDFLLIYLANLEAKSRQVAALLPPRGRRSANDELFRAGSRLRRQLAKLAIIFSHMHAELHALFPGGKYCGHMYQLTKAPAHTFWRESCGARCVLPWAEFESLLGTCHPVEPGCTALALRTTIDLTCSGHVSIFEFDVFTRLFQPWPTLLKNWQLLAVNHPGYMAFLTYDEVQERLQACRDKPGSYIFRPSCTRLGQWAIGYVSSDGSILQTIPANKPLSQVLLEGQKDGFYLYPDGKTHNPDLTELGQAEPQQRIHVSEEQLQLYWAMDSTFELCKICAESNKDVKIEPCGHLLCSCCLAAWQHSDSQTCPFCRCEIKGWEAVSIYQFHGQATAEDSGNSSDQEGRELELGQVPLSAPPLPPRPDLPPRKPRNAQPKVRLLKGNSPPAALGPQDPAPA
B5: ALK tyrosine kinase receptor (Homo sapiens), Q9UM73 (parent)
chain: B1 chain
partner: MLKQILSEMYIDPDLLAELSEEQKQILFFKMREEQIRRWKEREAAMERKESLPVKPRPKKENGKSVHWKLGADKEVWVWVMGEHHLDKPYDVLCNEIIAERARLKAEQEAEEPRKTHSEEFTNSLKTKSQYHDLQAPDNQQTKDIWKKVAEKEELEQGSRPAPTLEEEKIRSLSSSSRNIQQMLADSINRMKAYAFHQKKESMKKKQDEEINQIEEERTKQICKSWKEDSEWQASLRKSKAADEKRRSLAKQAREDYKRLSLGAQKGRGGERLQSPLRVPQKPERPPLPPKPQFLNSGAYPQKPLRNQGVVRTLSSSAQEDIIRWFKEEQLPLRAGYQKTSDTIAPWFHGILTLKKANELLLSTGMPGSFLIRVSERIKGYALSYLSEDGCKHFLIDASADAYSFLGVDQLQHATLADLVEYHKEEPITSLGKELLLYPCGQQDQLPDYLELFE
B6: ALK tyrosine kinase receptor (Homo sapiens), Q9UM73 (parent)
chain: B1 chain
partner: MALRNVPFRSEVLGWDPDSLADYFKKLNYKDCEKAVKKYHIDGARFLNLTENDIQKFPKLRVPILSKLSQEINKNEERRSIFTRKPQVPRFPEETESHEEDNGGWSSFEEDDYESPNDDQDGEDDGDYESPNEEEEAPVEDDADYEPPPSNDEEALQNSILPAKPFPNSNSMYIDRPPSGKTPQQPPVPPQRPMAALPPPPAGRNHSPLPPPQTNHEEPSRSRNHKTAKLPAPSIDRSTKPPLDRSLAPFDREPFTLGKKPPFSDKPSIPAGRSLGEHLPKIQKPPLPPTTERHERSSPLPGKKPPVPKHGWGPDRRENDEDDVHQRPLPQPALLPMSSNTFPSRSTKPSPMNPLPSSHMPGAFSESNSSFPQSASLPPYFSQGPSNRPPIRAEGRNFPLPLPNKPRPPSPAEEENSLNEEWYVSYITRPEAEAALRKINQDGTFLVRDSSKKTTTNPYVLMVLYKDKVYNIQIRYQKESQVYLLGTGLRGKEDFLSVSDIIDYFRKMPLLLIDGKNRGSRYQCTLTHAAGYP

The first test covers variants of B1. Conditions: with abl1_human ABL1, P00519.
Sequence of abl1_human ABL1, P00519 (P00519 whole entry): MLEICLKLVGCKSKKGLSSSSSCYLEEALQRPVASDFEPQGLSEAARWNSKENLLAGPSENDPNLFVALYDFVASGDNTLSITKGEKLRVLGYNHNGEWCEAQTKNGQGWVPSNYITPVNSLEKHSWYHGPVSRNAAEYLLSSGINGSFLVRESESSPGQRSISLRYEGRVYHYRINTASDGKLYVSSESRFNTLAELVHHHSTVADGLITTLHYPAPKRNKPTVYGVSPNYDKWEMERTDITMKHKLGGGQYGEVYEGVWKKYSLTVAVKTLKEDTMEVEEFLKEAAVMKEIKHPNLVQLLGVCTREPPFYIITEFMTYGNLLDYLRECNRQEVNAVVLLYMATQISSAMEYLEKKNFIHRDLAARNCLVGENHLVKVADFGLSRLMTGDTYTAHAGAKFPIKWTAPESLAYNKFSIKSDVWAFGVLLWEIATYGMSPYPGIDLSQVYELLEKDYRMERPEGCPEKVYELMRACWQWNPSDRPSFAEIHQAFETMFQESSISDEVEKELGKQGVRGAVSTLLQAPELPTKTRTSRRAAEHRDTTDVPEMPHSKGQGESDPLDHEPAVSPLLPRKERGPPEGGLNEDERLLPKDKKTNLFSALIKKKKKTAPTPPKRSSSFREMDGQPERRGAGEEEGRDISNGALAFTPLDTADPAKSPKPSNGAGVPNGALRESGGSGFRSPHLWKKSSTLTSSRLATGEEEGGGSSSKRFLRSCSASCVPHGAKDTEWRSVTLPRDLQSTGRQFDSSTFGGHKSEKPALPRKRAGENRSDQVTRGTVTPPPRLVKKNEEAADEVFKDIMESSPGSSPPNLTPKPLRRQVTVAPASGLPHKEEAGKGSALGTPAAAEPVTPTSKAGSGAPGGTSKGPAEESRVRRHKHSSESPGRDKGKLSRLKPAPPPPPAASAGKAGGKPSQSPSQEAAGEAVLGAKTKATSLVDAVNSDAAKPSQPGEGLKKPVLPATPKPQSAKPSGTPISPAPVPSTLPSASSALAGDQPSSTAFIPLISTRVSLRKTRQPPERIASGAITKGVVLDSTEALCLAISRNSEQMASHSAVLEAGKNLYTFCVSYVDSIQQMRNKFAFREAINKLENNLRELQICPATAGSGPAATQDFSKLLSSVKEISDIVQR
With F1245C, the “effect of a mutation on the interaction” value was “increasing interaction strength”.
As for I1250T, the “effect of a mutation on the interaction” value is on record as “decreasing interaction strength”.

The variants in a further test derive from B1. Conditions: with frk_human FRK.
For the variant F1245C, the “effect of a mutation on the interaction” value is on record as “increasing interaction strength”.
Consider I1250T, for which the “effect of a mutation on the interaction” value is “decreasing interaction strength”.

The variants in the next test derive from B1. Conditions: with sh24b_human SH2D4B.
On to F1245C, for which the “effect of a mutation on the interaction” value is listed as “increasing interaction strength”.
Take I1250T: the “effect of a mutation on the interaction” value is reported as “decreasing interaction strength”.

In a further test the parent is B1. Particulars: with srms_human SRMS.
Consider F1245C, for which the “effect of a mutation on the interaction” value is “increasing interaction strength”.
On the same count and under the same terms, for I1250T the value was “decreasing interaction strength”.

Variants of B1 are the subject of the next test. Particulars: with sta5b_human STAT5B.
As for F1245C, the “effect of a mutation on the interaction” value is reported as “increasing interaction strength”.
As to I1250T, the “effect of a mutation on the interaction” value is recorded as “decreasing interaction strength”.

In the next test the parent is B1. Particulars: with syk_human KARS1, Q15046.
Sequence of syk_human KARS1, Q15046 (Q15046 whole entry, looked up): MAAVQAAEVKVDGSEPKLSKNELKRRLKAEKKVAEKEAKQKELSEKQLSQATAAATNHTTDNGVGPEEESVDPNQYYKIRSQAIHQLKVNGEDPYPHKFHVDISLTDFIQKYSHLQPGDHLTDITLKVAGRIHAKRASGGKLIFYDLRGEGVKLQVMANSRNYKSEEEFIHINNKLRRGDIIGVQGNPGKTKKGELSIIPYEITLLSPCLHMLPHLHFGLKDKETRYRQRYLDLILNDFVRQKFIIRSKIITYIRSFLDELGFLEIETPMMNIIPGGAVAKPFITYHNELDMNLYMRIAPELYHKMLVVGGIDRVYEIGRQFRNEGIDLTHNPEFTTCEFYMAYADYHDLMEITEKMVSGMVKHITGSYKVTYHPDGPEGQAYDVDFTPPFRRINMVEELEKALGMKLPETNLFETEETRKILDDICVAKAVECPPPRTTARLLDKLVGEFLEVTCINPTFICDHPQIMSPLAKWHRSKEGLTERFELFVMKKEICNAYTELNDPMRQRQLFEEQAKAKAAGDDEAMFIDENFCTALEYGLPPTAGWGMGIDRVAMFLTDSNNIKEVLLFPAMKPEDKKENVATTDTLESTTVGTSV
On to F1245C, for which the “effect of a mutation on the interaction” value is given as “increasing interaction strength”.
Still for that read-out and setting: next, I1250T: “decreasing interaction strength”.

Variants of B1 are the subject of a further test. Particulars: with crk_human CRK.
F1245C: the “effect of a mutation on the interaction” value is recorded as “increasing interaction strength”.
Consider I1250T, for which the “effect of a mutation on the interaction” value was “decreasing interaction strength”.

The variants in a further test derive from B1. Particulars: with fgr_human FGR.
As for F1245C, the “effect of a mutation on the interaction” value was “increasing interaction strength”.
On the same count and under the same terms, next, I1250T: “decreasing interaction strength”.

The variants in the next test derive from B1. Conditions: with grb14_human GRB14, Q14449.
Sequence of grb14_human GRB14, Q14449 (Q14449 whole entry): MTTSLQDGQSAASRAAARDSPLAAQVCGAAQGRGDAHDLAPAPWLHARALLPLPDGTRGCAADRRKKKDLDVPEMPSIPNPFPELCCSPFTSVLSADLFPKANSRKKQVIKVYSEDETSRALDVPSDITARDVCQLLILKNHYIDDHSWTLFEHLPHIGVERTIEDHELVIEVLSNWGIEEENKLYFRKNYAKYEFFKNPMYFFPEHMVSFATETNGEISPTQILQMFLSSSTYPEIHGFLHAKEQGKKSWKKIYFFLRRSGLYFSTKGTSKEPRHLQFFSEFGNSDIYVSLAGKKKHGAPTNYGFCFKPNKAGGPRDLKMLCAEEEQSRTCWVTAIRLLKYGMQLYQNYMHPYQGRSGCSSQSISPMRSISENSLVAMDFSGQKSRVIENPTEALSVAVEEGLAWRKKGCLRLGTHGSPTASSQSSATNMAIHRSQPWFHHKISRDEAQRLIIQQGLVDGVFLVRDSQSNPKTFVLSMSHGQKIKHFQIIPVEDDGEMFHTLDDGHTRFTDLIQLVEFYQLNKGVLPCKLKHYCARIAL
For F1245C, the “effect of a mutation on the interaction” value is recorded as “increasing interaction strength”.
The same measure, in the same setting: next, I1250T: “decreasing interaction strength”.

In another test the parent is B1. Conditions: with hck_human HCK.
For F1245C, the “effect of a mutation on the interaction” value is “increasing interaction strength”.
On to I1250T, for which the “effect of a mutation on the interaction” value was “decreasing interaction strength”.

Another test covers variants of B1. Particulars: with lyn_human LYN.
For F1245C, the “effect of a mutation on the interaction” value is on record as “increasing interaction strength”.
In the case of I1250T, the “effect of a mutation on the interaction” value is “decreasing interaction strength”.

The variants in the next test derive from B1. Particulars: with nck2_human NCK2, O43639.
Sequence of nck2_human NCK2, O43639 (O43639 whole entry): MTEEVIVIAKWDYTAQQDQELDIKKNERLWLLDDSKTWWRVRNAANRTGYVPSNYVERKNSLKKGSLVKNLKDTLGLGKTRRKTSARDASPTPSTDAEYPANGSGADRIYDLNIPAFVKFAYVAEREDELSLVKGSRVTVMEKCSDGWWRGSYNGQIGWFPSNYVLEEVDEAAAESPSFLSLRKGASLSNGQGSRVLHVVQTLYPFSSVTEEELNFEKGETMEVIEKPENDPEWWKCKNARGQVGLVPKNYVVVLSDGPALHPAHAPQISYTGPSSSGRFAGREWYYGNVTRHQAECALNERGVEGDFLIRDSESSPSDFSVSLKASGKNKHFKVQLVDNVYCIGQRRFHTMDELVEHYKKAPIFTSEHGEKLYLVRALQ
For F1245C, the “effect of a mutation on the interaction” value is on record as “increasing interaction strength”.
I1250T: the “effect of a mutation on the interaction” value is on record as “decreasing interaction strength”.

Another test covers variants of B1. Particulars: with sh2b1_human SH2B1, Q9NRF2.
F1245C: the “effect of a mutation on the interaction” value was “increasing interaction strength”.
Same read-out and setting: for I1250T the value was “decreasing interaction strength”.

Variants of B1 are the subject of another test. Particulars: with shb_human SHB.
In the case of F1245C, the “effect of a mutation on the interaction” value is “increasing interaction strength”.
On to I1250T, for which the “effect of a mutation on the interaction” value is “decreasing interaction strength”.

In a further test the parent is B1. Particulars: with socs3_human SOCS3, O14543.
Sequence of socs3_human SOCS3, O14543 (O14543 whole entry): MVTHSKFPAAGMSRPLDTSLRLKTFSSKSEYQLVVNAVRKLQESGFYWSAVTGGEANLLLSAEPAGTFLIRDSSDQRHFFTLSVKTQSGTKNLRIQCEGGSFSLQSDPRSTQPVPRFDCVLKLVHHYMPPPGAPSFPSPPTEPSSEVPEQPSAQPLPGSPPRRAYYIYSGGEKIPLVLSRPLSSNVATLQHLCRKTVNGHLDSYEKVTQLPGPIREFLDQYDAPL
Regarding F1245C, the “effect of a mutation on the interaction” value is “increasing interaction strength”.
Still for that read-out and setting: for I1250T the value was “decreasing interaction strength”.

Variants of B1 are the subject of the next test. Particulars: with stat2_human STAT2, P52630.
Sequence of stat2_human STAT2, P52630 (P52630 whole entry): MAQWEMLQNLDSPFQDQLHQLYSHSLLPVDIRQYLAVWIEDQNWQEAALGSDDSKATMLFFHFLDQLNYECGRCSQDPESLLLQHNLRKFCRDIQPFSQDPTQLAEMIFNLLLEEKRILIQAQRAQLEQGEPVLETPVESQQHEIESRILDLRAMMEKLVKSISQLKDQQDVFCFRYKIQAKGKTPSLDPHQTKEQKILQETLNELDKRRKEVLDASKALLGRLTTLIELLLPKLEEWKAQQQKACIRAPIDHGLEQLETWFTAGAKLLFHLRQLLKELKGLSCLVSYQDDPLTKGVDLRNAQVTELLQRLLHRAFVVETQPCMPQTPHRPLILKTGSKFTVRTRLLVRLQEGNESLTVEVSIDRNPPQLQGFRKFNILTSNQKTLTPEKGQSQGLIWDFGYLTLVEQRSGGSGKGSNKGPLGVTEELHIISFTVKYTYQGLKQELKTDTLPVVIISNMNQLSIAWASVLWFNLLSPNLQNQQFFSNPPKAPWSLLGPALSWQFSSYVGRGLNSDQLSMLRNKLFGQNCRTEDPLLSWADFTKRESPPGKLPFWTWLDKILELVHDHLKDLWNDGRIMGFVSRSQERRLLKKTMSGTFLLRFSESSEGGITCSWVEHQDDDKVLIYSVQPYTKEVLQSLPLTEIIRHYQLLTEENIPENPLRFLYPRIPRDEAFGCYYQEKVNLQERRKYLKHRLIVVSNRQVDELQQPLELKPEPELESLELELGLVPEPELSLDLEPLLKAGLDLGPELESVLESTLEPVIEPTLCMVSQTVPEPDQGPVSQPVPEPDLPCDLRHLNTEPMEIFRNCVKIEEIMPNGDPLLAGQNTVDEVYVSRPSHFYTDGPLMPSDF
Consider F1245C, for which the “effect of a mutation on the interaction” value is listed as “increasing interaction strength”.
Take I1250T: the “effect of a mutation on the interaction” value is given as “decreasing interaction strength”.

In the next test the parent is B1. Particulars: with zap70_human ZAP70, P43403.
Sequence of zap70_human ZAP70, P43403 (P43403 whole entry): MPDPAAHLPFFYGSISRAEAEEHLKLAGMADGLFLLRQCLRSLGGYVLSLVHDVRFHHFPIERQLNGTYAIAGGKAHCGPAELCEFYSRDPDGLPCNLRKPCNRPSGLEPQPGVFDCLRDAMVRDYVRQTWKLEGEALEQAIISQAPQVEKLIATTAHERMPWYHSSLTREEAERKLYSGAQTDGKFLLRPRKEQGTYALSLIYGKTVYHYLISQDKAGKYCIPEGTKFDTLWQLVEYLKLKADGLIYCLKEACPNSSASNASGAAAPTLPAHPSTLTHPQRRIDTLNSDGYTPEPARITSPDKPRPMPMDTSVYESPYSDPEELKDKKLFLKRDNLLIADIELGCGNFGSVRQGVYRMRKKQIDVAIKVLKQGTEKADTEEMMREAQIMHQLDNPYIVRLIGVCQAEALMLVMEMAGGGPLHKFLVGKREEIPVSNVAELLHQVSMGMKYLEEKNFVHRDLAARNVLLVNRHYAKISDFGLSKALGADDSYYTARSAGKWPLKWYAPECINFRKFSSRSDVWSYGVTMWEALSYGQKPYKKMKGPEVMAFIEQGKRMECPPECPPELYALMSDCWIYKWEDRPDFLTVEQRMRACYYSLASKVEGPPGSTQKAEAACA
With F1245C, the “effect of a mutation on the interaction” value is reported as “increasing interaction strength”.
As for I1250T, the “effect of a mutation on the interaction” value is reported as “decreasing interaction strength”.

The next test covers variants of B1. Conditions: with rack1_human RACK1, P63244.
F1245C: the “effect of a mutation on the interaction” value was “increasing interaction strength”.
The same measure, in the same setting: for I1250T the value was “decreasing interaction strength”.

The variants in the next test derive from B2. Particulars: with stap1_human STAP1, Q9ULZ2.
Regarding F1245C, the “effect of a mutation on the interaction” value is “increasing interaction strength”.
The same measure, in the same setting: next, L1196M: “increasing interaction strength”.
I1250T: the “effect of a mutation on the interaction” value is listed as “decreasing interaction strength”.

In the next test the parent is B3. Conditions: with shd_human SHD.
Consider I1250T, for which the “effect of a mutation on the interaction” value is reported as “decreasing interaction strength”.
L1196M: the “effect of a mutation on the interaction” value is on record as “increasing interaction strength”.
For F1245C, the “effect of a mutation on the interaction” value was “increasing interaction strength”.

Variants of B4 are the subject of a further test. Conditions: with cblc_human CBLC.
In the case of F1245C, the “effect of a mutation on the interaction” value is given as “increasing interaction strength”.
Take L1196M: the “effect of a mutation on the interaction” value is reported as “increasing interaction strength”.
Still for that read-out and setting: next, I1250T: “decreasing interaction strength”.

The variants in another test derive from B5. Particulars: with sh24a_human SH2D4A.
As to I1250T, the “effect of a mutation on the interaction” value is “decreasing interaction strength”.
Same read-out and setting: for L1196M the value was “increasing interaction strength”.
Still for that read-out and setting: next, F1245C: “increasing interaction strength”.

Another test covers variants of B6. Conditions: with lcp2_human LCP2, Q13094.
For I1250T, the “effect of a mutation on the interaction” value is “decreasing interaction strength”.
As for F1245C, the “effect of a mutation on the interaction” value was “increasing interaction strength”.
On the same count and under the same terms, for L1196M the value was “increasing interaction strength”.
